Measured values from patent publication US20200062861A1.

Target: Herceptin-GlcNAc
Experiment: cell-based or functional assay

EndoSz-D234M (enzyme)
time dependent transglycosylation (HPLC, percent of Herceptin-GlcNAc remaining): 0%
